Laboratory results reported in the supplement of paper PMC7877785.
± gives the uncertainty stated by the source.

Assay: self-splicing fitness, log relative to wild type (ln ratio); higher = more splicing; Tetrahymena group I intron in knt gene, E. coli kanamycin selection, DiMSum; sequences stand for … in CUCUCU…GGAGGGAAAAGUUAUCAGGCAUGCACCUGGUAGCUAGUCUUUAAACCAAUAGAUUGCAUCGGUUUAAAAGGCAAGACCGUCAAAUUGCGGGAAAGGGGUCAACAGCCGUUCAGUACCAAGUCUCAGGGGAAACUUUGAGAUGGCCUUGCAAAGGGUAUGGUAAUAAGCUGACGGACAUGGUCCUAACCACGCAGCCAAGUCCUAAGUCAACAGAUCUUCUGUUGAUAUGGAUGCAGUUCACAGACUAAAUGUCGGUCGGGGAAGAUGUAUUCUUCUCAUAAGAUAUAGUCGGACCUCUCCUUAAUGGGAGCUAGCGGAUGAAGUGAUGCAACACUGGAGCCGCUGGGAACUAAUUUGUAUGCGAAAGUAUAUUGAUUAGUUUUGGAGUACUCGUGGUCG
Outline: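 Colonies from six replicate transformations of E. coli BL21(DE3) were pooled and amplicon-sequenced on an Illumina HiSeq 2500. The library placed an intron with all eight P1ex-region nucleotides randomised inside the knt kanamycin-resistance gene on pET-22b(+), and cells grew overnight at 37°C or 30°C on LB agar with or without 25 μg/mL kanamycin (plus 100 μg/mL carbenicillin, 50 μM IPTG, 0.2% rhamnose). Fitness is the DiMSum error-weighted combination of wild-type-normalised replicate fold changes, kanamycin versus none.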

| Sequence | self-splicing fitness (ln) (30 °C) | self-splicing fitness (ln) (37 °C) |
| --- | --- | --- |
| UGCCAGCAAUAUUACGGUUG | -1.94 ± 0.096 | -0.692 ± 0.11 |
| CGACAGCAAUAUUACGGCGA | -1.65 ± 0.14 | -0.523 ± 0.13 |
| CUUGAGCAAUAUUACGUGAU | -4.13 ± 0.21 | -1.96 ± 0.15 |
| UGAUAGCAAUAUUACGGCAG | 0.188 ± 0.17 | 0.0746 ± 0.18 |
| UUGUAGCAAUAUUACGACUA | -0.429 ± 0.13 | -0.0263 ± 0.16 |
| AGGUAGCAAUAUUACGCAUC | -3.221 ± 0.027 | -1.72 ± 0.038 |
| AUAAAGCAAUAUUACGAGAC | -2.89 ± 0.17 | -1.63 ± 0.19 |
| CACCAGCAAUAUUACGCACC | -3.63 ± 0.47 | -2.31 ± 0.34 |
| UCAUAGCAAUAUUACGGUAG | -3.28 ± 0.23 | -1.77 ± 0.17 |
| CUAAAGCAAUAUUACGCGAG | -0.464 ± 0.077 | 0.0633 ± 0.11 |
| UCCCAGCAAUAUUACGUCCU | -3.36 ± 0.18 | -1.48 ± 0.15 |
| GUCGAGCAAUAUUACGUGGU | -3.5 ± 0.19 | -2.8 ± 0.19 |
| GUGUAGCAAUAUUACGUCAU | -3.23 ± 0.2 | -2.63 ± 0.17 |
| AUGUAGCAAUAUUACGCGCC | -0.455 ± 0.077 | -0.312 ± 0.096 |
| AAACAGCAAUAUUACGGCAA | -0.944 ± 0.096 | -0.612 ± 0.11 |
| GAGGAGCAAUAUUACGGCCU | -1.99 ± 0.38 | – |
| GCAAAGCAAUAUUACGGACC | -0.898 ± 0.092 | 0.746 ± 0.13 |
| GUGGAGCAAUAUUACGCCUG | -2.7 ± 0.23 | – |
| UACAAGCAAUAUUACGAAUU | -2.48 ± 0.16 | -2.99 ± 0.26 |
| AGAUAGCAAUAUUACGUUAG | -4.56 ± 0.31 | -0.345 ± 0.15 |
| CCGGAGCAAUAUUACGGUUU | -3.33 ± 0.25 | -2.55 ± 0.18 |
| GGCUAGCAAUAUUACGCUCA | -2.07 ± 0.33 | -0.183 ± 0.25 |
| UCAGAGCAAUAUUACGGGUU | -3.76 ± 0.46 | -1.58 ± 0.26 |
| GCCAAGCAAUAUUACGUUCU | -2.45 ± 0.081 | -1.53 ± 0.088 |

| Sequence | self-splicing fitness (ln) (30 °C) | self-splicing fitness (ln) (37 °C) |
| --- | --- | --- |
| AUAAAGCAAUAUUACGGGUC | -3.45 ± 0.19 | -1.25 ± 0.15 |
| AAUAAGCAAUAUUACGGAUU | -1.34 ± 0.096 | -0.185 ± 0.12 |
| CCCAAGCAAUAUUACGACGC | -2.8 ± 0.22 | -0.545 ± 0.23 |
| UUAGAGCAAUAUUACGGCGU | -1.73 ± 0.14 | -1.12 ± 0.22 |
| CAGGAGCAAUAUUACGGGAG | -1.92 ± 0.18 | -0.745 ± 0.17 |
| AUUGAGCAAUAUUACGCCAC | -1.44 ± 0.42 | – |
| AAACAGCAAUAUUACGUCUU | -0.362 ± 0.054 | 0.322 ± 0.071 |
| CCGCAGCAAUAUUACGGGGC | -3.25 ± 0.24 | -2.21 ± 0.28 |
| GCAAAGCAAUAUUACGCUCA | -0.972 ± 0.13 | -0.0384 ± 0.16 |
| GUUGAGCAAUAUUACGUUGU | -3.09 ± 0.23 | -1.68 ± 0.17 |
| UCCAAGCAAUAUUACGUCCU | -4.09 ± 0.31 | -2.95 ± 0.43 |
| CGCAAGCAAUAUUACGCACG | -2.96 ± 0.23 | -1.24 ± 0.17 |
| AGACAGCAAUAUUACGCAGA | -2.56 ± 0.27 | -1.38 ± 0.2 |
| UUAAAGCAAUAUUACGUUAG | -0.59 ± 0.095 | -0.125 ± 0.097 |
| GCGCAGCAAUAUUACGGAAC | -1.37 ± 0.081 | -0.714 ± 0.098 |
| UUCAAGCAAUAUUACGACUA | 0.15 ± 0.12 | 0.446 ± 0.14 |
| UGGGAGCAAUAUUACGGUCA | -0.375 ± 0.12 | -0.291 ± 0.14 |
| UAGCAGCAAUAUUACGUAUC | -3.16 ± 0.16 | -2.87 ± 0.25 |
| GAUGAGCAAUAUUACGGGUA | -3.19 ± 0.27 | -1.02 ± 0.17 |
| AUCGAGCAAUAUUACGUAAG | -2.16 ± 0.44 | -1.61 ± 0.3 |
| UUCUAGCAAUAUUACGCGAA | -2.25 ± 0.21 | -1.3 ± 0.2 |
| CGUGAGCAAUAUUACGAGGG | -3.77 ± 0.3 | -2.36 ± 0.25 |
| AAUCAGCAAUAUUACGGUAU | 0.192 ± 0.063 | 0.705 ± 0.088 |
| UCUGAGCAAUAUUACGUAAA | -3.29 ± 0.19 | -1.69 ± 0.18 |
